Measurements reported in patent publication US20230250185A1 (ARCELLX, published 2023).
Read-outs that look alike come from different tables or passages of the source.

T1: CD123-Fc (Sino Biological) (human, UniProt P26951 19-305)
T1 construct: Bought reagent; not shown: Fc part of the bought fusion (detected with anti-human Fc HRP)
T1 sequence: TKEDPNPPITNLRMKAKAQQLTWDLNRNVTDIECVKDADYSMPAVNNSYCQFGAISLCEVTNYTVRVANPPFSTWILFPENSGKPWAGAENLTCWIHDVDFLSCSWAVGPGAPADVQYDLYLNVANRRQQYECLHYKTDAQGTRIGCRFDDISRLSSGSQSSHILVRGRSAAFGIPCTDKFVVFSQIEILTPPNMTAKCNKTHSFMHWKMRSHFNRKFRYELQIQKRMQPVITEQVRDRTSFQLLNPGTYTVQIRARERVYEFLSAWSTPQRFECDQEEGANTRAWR


Legend:
[1] = molecular target: T1, CD123-Fc (Sino Biological); assay: ELISA, serial dilution of MBP fusion normalized for protein concentration; readout CD123-Fc Binding (A450)
[2] = molecular target: T1, CD123-Fc (Sino Biological); assay: as above; remark: listed apart in the source
[3] = molecular target: T1, CD123-Fc (Sino Biological); assay: BLI (Octet RED386): CD123-Fc captured on AHC sensor, Adapter in solution 500-0.69 nM, 25 C, global 1:1 fit

Binder	EC50 [1] [ng/mL]	EC50 [2] [ng/mL]	Kd [3] [nM]	koff [3] [s⁻¹]	kon [3] [M⁻¹ s⁻¹]
5S5W D domain as MBP fusion (designed binder, not shown: limits, linker and position relative to the D dom) MGSWSEFNMRLDAIYERLTALGGSEAELAAFEKEIAAFESELQAYKGKGNPEVEWLRHSAARIRLELQAYRHN	57.9	68.7			
5B7L D domain as MBP fusion (designed binder, not shown: limits, linker and position relative to the D dom) MGSWIEFNMRLDAIYERLVALGGSEAELAAFEKEIAAFESELQAYKGKGNPEVEWLRKVAANIRLELQAYRHN	3.72	5.12			
8W9C D domain as MBP fusion (designed binder, Expressed in E. coli and assayed from leak-out supernatant; also called wild-type (8W9C); parental 8W9C; not shown: limits, linker and position relative to the D dom) MGSWDEFGRRLYAIEWRLYALGGSEAELAAFEKEIAAFESELQAYKGKGNPEVEKLREIAAVIRSNLQAYRHN	6.97	7.47			
Adapter protein comprising the 8W9C D domain and P26(Q26-V229) AFP polypeptide (designed binder) MGSWDEFGRRLYAIEWRLYALGGSEAELAAFEKEIAAFESELQAYKGKGNPEVEKLREIAAVIRSNLQAYRHN			5.2	0.000924	177000
Adapter protein comprising the 1F9I D domain and P26(Q26-V229) AFP polypeptide (designed binder) MGSWDEFGRRLYAIEWQLYAQGGTEAELAAFEKEIAAFESELQAYKGKGNPEVEKLRELAAVIRENLQAYRHN			7.6	0.000646	85200
4H2H D domain as MBP fusion (designed binder, not shown: large carriers; small tags and cut ends, also called 8W9C (K48I, K55N)) MGSWDEFGRRLYAIEWRLYALGGSEAELAAFEKEIAAFESELQAYKGIGNPEVENLREIAAVIRSNLQAYRHN	5.4				
6Z5E D domain as MBP fusion (designed binder, not shown: large carriers; small tags and cut ends, also called 8W9C (N50S)) MGSWDEFGRRLYAIEWRLYALGGSEAELAAFEKEIAAFESELQAYKGKGSPEVEKLREIAAVIRSNLQAYRHN	3.26				
1J1K D domain as MBP fusion (designed binder, not shown: large carriers; small tags and cut ends, also called 8W9C (G8S)) MGSWDEFSRRLYAIEWRLYALGGSEAELAAFEKEIAAFESELQAYKGKGNPEVEKLREIAAVIRSNLQAYRHN		3.69			
